Test results from patent US20240141072A1 (published 2024).

T1: biotinylated human DLL3 protein expressed as a human IgG1 fusion protein (human, UniProt Q9NYJ7 27-492, limits assumed, biotinylated)
T1 sequence: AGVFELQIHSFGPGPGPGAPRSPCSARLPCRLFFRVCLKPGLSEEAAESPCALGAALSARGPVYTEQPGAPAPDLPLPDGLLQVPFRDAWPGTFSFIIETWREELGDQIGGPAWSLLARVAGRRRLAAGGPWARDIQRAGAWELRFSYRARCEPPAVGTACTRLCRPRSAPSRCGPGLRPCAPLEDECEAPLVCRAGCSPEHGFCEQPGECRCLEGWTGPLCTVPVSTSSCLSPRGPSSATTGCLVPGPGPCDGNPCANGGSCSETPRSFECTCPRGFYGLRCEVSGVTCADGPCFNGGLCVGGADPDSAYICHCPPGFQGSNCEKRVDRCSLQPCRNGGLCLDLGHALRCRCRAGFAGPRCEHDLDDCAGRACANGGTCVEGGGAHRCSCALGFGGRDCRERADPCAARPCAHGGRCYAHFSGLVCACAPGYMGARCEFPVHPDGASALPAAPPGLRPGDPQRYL


Target: T1, biotinylated human DLL3 protein …
Assay: Octet BLI, single 50 nM
Experimental: Using the conditioned medium with known concentrations of the anti-DLL3 trispecific proteins, the binding affinities of the anti-DLL3 trispecific proteins toward human DLL3 protein were measured using a method where biotinylated version of human DLL3 protein were expressed as a human IgG1 fusion protein, and the binding affinity measurement was carried out in an Octet instrument with streptavidin tips.

| Binder | Kd [nM] |
| --- | --- |
| 1G01 anti-DLL3 trispecific protein (other, not shown: linker 1808, anti-albumin sdAb, linker 1808, anti-CD3 fragment, His6 1819) EVQLVESGGGLVQPGGSLTLSCVASGSTSSINAMAWYRRAPGKQRELVAGISSDGSKVYAESVKGRFTISRDNAKNSVYLQMNSLRAEDTAVYYCYYFRTVSGASMRYWGQGTLVTVSS | 6.6 |
| 1G04 anti-DLL3 trispecific protein (other, not shown: linker 1808, anti-albumin sdAb, linker 1808, anti-CD3 fragment, His6 1819) EVQLVESGGGLVQPGGSLTLSCVASGSTSSTNAMGWYRRAPGKQRELVAGISSDGSKVLADSVKGRFTISRDNAKNSVYLQMNSLRAEDTAVYYCYYFRTVNLSSMRYWGQGTLVTVSS | 11 |
| 1G05 anti-DLL3 trispecific protein (other, not shown: linker 1808, anti-albumin sdAb, linker 1808, anti-CD3 fragment, His6 1819) EVQLVESGGGLVQPGGSLTLSCVASGSTSSINAIGWYRRAPGKQRELVAGISSDGSKYYADSVKGRFTISRDNAKNSVYLQMNSLRAEDTAVYYCYYFRTVTGSSMRYWGQGTLVTVSS | 14 |
| 1G06 anti-DLL3 trispecific protein (other, not shown: linker 1808, anti-albumin sdAb, linker 1808, anti-CD3 fragment, His6 1819) EVQLVESGGGLVQPGGSLTLSCVASGSTSSINAIGWYRRAPGKQRELVAGISSDGSKVYAVSVKGRFTISRDNAKNSVYLQMNSLRAEDTAVYYCYYFRKVSGSSARYWGQGTLVTVSS | 26 |
| 1G07 anti-DLL3 trispecific protein (other, not shown: linker 1808, anti-albumin sdAb, linker 1808, anti-CD3 fragment, His6 1819) EVQLVESGGGLVQPGGSLTLSCVASGSTSSINAMGWYRRAPGKQRELVAGISSDGSKVVADSVKGRFTISRDNAKNSVYLQMNSLRAEDTAVYYCYYFRTYSGSSMRYWGQGTLVTVSS | 8.3 |
| 1G09 anti-DLL3 trispecific protein (other, not shown: linker 1808, anti-albumin sdAb, linker 1808, anti-CD3 fragment, His6 1819) EVQLVESGGGLVQPGGSLTLSCVASGSTSSINAMGWYRRAPGKQRELVAGISSDGSKVYADSVKGRFTISRDNAKNSVYLQMNSLRAEDTAVYYCYYFRTVSKSSMRYWGQGTLVTVSS | 10 |
| 1G011 anti-DLL3 trispecific protein (other, not shown: linker 1808, anti-albumin sdAb, linker 1808, anti-CD3 fragment, His6 1819) EVQLVESGGGLVQPGGSLTLSCVASGSTSSINAMAWYRRAPGKQRELVAGISSDGSKVYADSVKGRFTISRDNAKNSVYLQMNSLRAEDTAVYYCYYFKTVSGSSMRYWGQGTLVTVSS | 6.8 |
| 1H01 anti-DLL3 trispecific protein (other, not shown: linker 1808, anti-albumin sdAb, linker 1808, anti-CD3 fragment, His6 1819) EVQLVESGGGLVQPGGSLTLSCVASGSTSSINAMAWYRRAPGKQRELAAGISSDNSKVYADSVKGRFTISRDNAKNSVYLQMNSLRAEDTAVYYCYYFRTRSGSSMRYWGQGTLVTVSS | 5.7 |
| 1H02 anti-DLL3 trispecific protein (other, not shown: linker 1808, anti-albumin sdAb, linker 1808, anti-CD3 fragment, His6 1819) EVQLVESGGGLVQPGGSLTLSCVASGSKSSINAMGWYRRAPGKQRELAAGISSDGSKVYAQSVKGRFTISRDNAKNSVYLQMNSLRAEDTAVYYCYYFRTSSGSSMRYWGQGTLVTVSS | 10 |
| 1H06 anti-DLL3 trispecific protein (other, not shown: linker 1808, anti-albumin sdAb, linker 1808, anti-CD3 fragment, His6 1819) EVQLVESGGGLVQPGGSLTLSCVASGTTSSINAMGWYRRAPGKQRELVAGISSDGSKVYVDSVKGRFTISRDNAKNSVYLQMNSLRAEDTAVYYCYYFRFLSGSSMRYWGQGTLVTVSS | 14 |
| 1H07 anti-DLL3 trispecific protein (other, not shown: linker 1808, anti-albumin sdAb, linker 1808, anti-CD3 fragment, His6 1819) EVQLVESGGGLVQPGGSLTLSCVASGSTSSINAFGWYRRAPGKQRELVAGISSDGSKVYSDSVKGRFTISRDNAKNSVYLQMNSLRAEDTAVYYCYYFRTVSGSSMRYWGQGTLVTVSS | 6.2 |
| 1H08 anti-DLL3 trispecific protein (other, not shown: linker 1808, anti-albumin sdAb, linker 1808, anti-CD3 fragment, His6 1819) EVQLVESGGGLVQPGGSLTLSCVASGSTFSINAMGWYRRAPGKQRELVAGISSDGSKVLADSVKGRFTISRDNAKNSVYLQMNSLRAEDTAVYYCYYFRLVSGSSMRYWGQGTLVTVSS | 17 |
| 1H010 anti-DLL3 trispecific protein (other, not shown: linker 1808, anti-albumin sdAb, linker 1808, anti-CD3 fragment, His6 1819) EVQLVESGGGLVQPGGSLTLSCVASGSTRSINAMGWYRRAPGKQRELVAGISSDGSKVYNDSVKGRFTISRDNAKNSVYLQMNSLRAEDTAVYYCYYFRTVSGSSMRFWGQGTLVTVSS | 8.4 |
| 1H011 anti-DLL3 trispecific protein (other, not shown: linker 1808, anti-albumin sdAb, linker 1808, anti-CD3 fragment, His6 1819) EVQLVESGGGLVQPGGSLTLSCVASGSTSSINAIGWYRRAPGKQRELVAGISSDGSKVYNDSVKGRFTISRDNAKNSVYLQMNSLRAEDTAVYYCYYFRTQSGSSMRYWGQGTLVTVSS | 6.2 |
| 2A01 anti-DLL3 trispecific protein (other, not shown: linker 1808, anti-albumin sdAb, linker 1808, anti-CD3 fragment, His6 1819) EVQLVESGGGLVQPGGSLTLSCVASGSTSSINAMGWYRRAPGKQRELVAGISSDGSKVVADSVKGRFTISRDNAKNSVYLQMNSLRAEDTAVYYCYYFRTLSGSSMRYWGQGTLVTVSS | 8 |
| 2A03 anti-DLL3 trispecific protein (other, not shown: linker 1808, anti-albumin sdAb, linker 1808, anti-CD3 fragment, His6 1819) EVQLVESGGGLVQPGGSLTLSCVASGTTSSINAMGWYRRAPGKQRELVAGISSDGSKVYGDSVKGRFTISRDNAKNSVYLQMNSLRAEDTAVYYCYYFRTVSGSAMRYWGQGTLVTVSS | 8.2 |

| Binder | Kd [nM] |
| --- | --- |
| 2A05 anti-DLL3 trispecific protein (other, not shown: linker 1808, anti-albumin sdAb, linker 1808, anti-CD3 fragment, His6 1819) EVQLVESGGGLVQPGGSLTLSCVASGRTSSINAMGWYRRAPGKQRELVAGISSDGSKVYNDSVKGRFTISRDNAKNSVYLQMNSLRAEDTAVYYCYYFRTVSGTSMRYWGQGTLVTVSS | 8.9 |
| 2A06 anti-DLL3 trispecific protein (other, not shown: linker 1808, anti-albumin sdAb, linker 1808, anti-CD3 fragment, His6 1819) EVQLVESGGGLVQPGGSLTLSCVASGSTSSRNAMGWYRRAPGKQRELVAGISSDGSKVTADSVKGRFTISRDNAKNSVYLQMNSLRAEDTAVYYCYYFRTRSGSSMRYWGQGTLVTVSS | 8.9 |
| 2A08 anti-DLL3 trispecific protein (other, not shown: linker 1808, anti-albumin sdAb, linker 1808, anti-CD3 fragment, His6 1819) EVQLVESGGGLVQPGGSLTLSCVASGSTKSINAMGWYRRAPGKQRELVAGISSDGSKVYRDSVKGRFTISRDNAKNSVYLQMNSLRAEDTAVYYCYYFRTSSGSSMRYWGQGTLVTVSS | 7.7 |
| 2A09 anti-DLL3 trispecific protein (other, not shown: linker 1808, anti-albumin sdAb, linker 1808, anti-CD3 fragment, His6 1819) EVQLVESGGGLVQPGGSLTLSCVASGSTSSRNAMGWYRRAPGKQRELVAGISSNGSKVYSDSVKGRFTISRDNAKNSVYLQMNSLRAEDTAVYYCYYFRTVSGSSMSYWGQGTLVTVSS | 10 |
| 2A011 anti-DLL3 trispecific protein (other, not shown: linker 1808, anti-albumin sdAb, linker 1808, anti-CD3 fragment, His6 1819) EVQLVESGGGLVQPGGSLTLSCVASGSTSSINAIGWYRRAPGKQRELVAGISSDGSKVYSDSVKGRFTISRDNAKNSVYLQMNSLRAEDTAVYYCYYFRPVSGSSMRYWGQGTLVTVSS | 4 |
| 2B01 anti-DLL3 trispecific protein (other, not shown: linker 1808, anti-albumin sdAb, linker 1808, anti-CD3 fragment, His6 1819) EVQLVESGGGLVQPGGSLTLSCVASGSTSLINAMGWYRRAPGKQRELVAGISSDGSKVYADSVKGRFTISRDNAKNSVYLQMNSLRAEDTAVYYCYYFRHVSGSSMRYWGQGTLVTVSS | 10 |
| 2B02 anti-DLL3 trispecific protein (other, not shown: linker 1808, anti-albumin sdAb, linker 1808, anti-CD3 fragment, His6 1819) EVQLVESGGGLVQPGGSLTLSCVASGSTSSINAMAWYRRAPGKQRELVAGISSDGSKVYADSVKGRFTISRDNAKNSVYLQMNSLRAEDTAVYYCYYFRTKSGSSMRYWGQGTLVTVSS | 6.6 |
| 2B03 anti-DLL3 trispecific protein (other, not shown: linker 1808, anti-albumin sdAb, linker 1808, anti-CD3 fragment, His6 1819) EVQLVESGGGLVQPGGSLTLSCVASGSTSSINAMGWYRRAPGKQRELVAGISSDGSLVYADSVKGRFTISRDNAKNSVYLQMNSLRAEDTAVYYCYYFTTVSGSSMRYWGQGTLVTVSS | 7.6 |
| 2B05 anti-DLL3 trispecific protein (other, not shown: linker 1808, anti-albumin sdAb, linker 1808, anti-CD3 fragment, His6 1819) EVQLVESGGGLVQPGGSLTLSCVASGTTSSINAMGWYRRAPGKQRELVAGISSDGTKVYADSVKGRFTISRDNAKNSVYLQMNSLRAEDTAVYYCYYFHTVSGSSMRYWGQGTLVTVSS | 7.4 |
| 2B07 anti-DLL3 trispecific protein (other, not shown: linker 1808, anti-albumin sdAb, linker 1808, anti-CD3 fragment, His6 1819) EVQLVESGGGLVQPGGSLTLSCVASGSTSSINAFGWYRRAPGKQRELVAGISSDGSKVYADSVKGRFTISRDNAKNSVYLQMNSLRAEDTAVYYCYYFRTVRGSSMRYWGQGTLVTVSS | 5.7 |
| 2B010 anti-DLL3 trispecific protein (other, not shown: linker 1808, anti-albumin sdAb, linker 1808, anti-CD3 fragment, His6 1819) EVQLVESGGGLVQPGGSLTLSCVASGSTSSRNAMGWYRRAPGKQRELVAGISSDGSKLYLDSVKGRFTISRDNAKNSVYLQMNSLRAEDTAVYYCYYFRTVLGSSMRYWGQGTLVTVSS | 10 |
| 2B011 anti-DLL3 trispecific protein (other, not shown: linker 1808, anti-albumin sdAb, linker 1808, anti-CD3 fragment, His6 1819) EVQLVESGGGLVQPGGSLTLSCVASGNTSSINAMGWYRRAPGKQRELVAGISSDGSRVYADSVKGRFTISRDNAKNSVYLQMNSLRAEDTAVYYCYYFRTVSGSSMRSWGQGTLVTVSS | 11 |
| 2B012 anti-DLL3 trispecific protein (other, not shown: linker 1808, anti-albumin sdAb, linker 1808, anti-CD3 fragment, His6 1819) EVQLVESGGGLVQPGGSLTLSCVASGTTSSINAMGWYRRAPGKQRELVAGISSDGSKVYNDSVKGRFTISRDNAKNSVYLQMNSLRAEDTAVYYCYYFRTVRGSSMRYWGQGTLVTVSS | 7.3 |
| 2C01 anti-DLL3 trispecific protein (other, not shown: linker 1808, anti-albumin sdAb, linker 1808, anti-CD3 fragment, His6 1819) EVQLVESGGGLVQPGGSLTLSCVASGSTASINAMGWYRRAPGKQRELVAGISSDGSKVYADSVKGRFTISRDNAKNSVYLQMNSLRAEDTAVYYCYYFRYVSGSSMRYWGQGTLVTVSS | 12 |
| 2C02 anti-DLL3 trispecific protein (other, not shown: linker 1808, anti-albumin sdAb, linker 1808, anti-CD3 fragment, His6 1819) EVQLVESGGGLVQPGGSLTLSCVASGSTSSINAVGWYRRAPGKQRELVAGISSDGSKVYVDSVKGRFTISRDNAKNSVYLQMNSLRAEDTAVYYCYYFRTVYGSSMRYWGQGTLVTVSS | 4.1 |
